According to patent publication US12679878B2, “CRF2 receptor agonists and their use in therapy” (SANOFI, priority 2020, dated 2026):
Starred links: 1 amine or outer side, 2 acyl side, 3 side chain; linkers in the order of their positions; H or OH if unused. Non-standard residues stand in square brackets, D forms with d. Groups on a side chain read outwards from the residue. No end group written: not given here. *: point of attachment. C18 diacid = O=C(O)CCCCCCCCCCCCCCCCC(=O)*; γGlu = O=C(O)[C@H](CCC(=O)[*:2])N[*:1]; AEEA = NCCOCCOCC(=O)O; Aib = CC(C)(N)C(=O)O

T1: anti-target CRF1R receptor (UniProt P34998 24-415, limits assumed)
T1 sequence (looked up): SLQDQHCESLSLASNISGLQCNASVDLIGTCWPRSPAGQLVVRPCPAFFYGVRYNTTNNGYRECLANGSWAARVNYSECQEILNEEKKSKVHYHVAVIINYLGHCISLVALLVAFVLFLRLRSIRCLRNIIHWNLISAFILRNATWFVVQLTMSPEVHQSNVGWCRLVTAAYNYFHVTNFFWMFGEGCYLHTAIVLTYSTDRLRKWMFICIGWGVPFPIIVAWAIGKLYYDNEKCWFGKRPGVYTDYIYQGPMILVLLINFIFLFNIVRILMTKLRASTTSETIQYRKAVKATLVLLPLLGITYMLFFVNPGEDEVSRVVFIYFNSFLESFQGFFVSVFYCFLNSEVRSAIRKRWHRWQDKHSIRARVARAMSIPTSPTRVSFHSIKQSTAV

T2: endogenous human CRF2 (NCI-H82 cells) (human, UniProt Q13324 20-411)
T2 sequence (looked up): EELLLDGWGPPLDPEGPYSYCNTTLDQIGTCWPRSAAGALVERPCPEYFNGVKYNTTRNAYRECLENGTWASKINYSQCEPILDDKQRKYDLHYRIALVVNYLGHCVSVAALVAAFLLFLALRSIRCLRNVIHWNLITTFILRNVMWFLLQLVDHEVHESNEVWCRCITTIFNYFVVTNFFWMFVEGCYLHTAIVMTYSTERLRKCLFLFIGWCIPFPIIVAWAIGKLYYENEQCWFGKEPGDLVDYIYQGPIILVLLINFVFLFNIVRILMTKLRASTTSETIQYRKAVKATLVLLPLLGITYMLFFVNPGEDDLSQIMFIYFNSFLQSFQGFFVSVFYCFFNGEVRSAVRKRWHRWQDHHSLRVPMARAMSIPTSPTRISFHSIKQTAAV


Tests used:
Test in all cases: cell-based or functional assay
rat CRF2R α receptor = rat CRF2R α receptor (rat, UniProt P47866 20-411)
[1] = molecular target: T1, anti-target CRF1R receptor
[2] = molecular target: T2, endogenous human CRF2 (NCI-H82 cells)

EC50 [nM], 0% HSA (cAMP, A7R5 cells) (rat CRF2R α receptor) [nM] | EC50[nM] 0% HSA (cAMP, CRF1R-overexpression CHO cells) [1] [nM] | Emax (%) (cAMP, CRF1R-overexpression CHO cells) [1] | EC50 [nM] (cAMP, NCI-H82 cells) [2] | Binder
0.49 | > 1000 | 9.07 | 7.4 | IVLSLD[dV]PIGLK([AEEA-AEEA-γGlu-C18 diacid])QILLKQERQKK[Aib]REQAEKNKRILERV-NH2 (N-terminus assumed; SMILES CC[C@H](C)[C@H](N)C(=O)N[C@H](C(=O)N[C@@H](CC(C)C)C(=O)N[C@@H](CO)C(=O)N[C@@H](CC(C)C)C(=O)N[C@@H](CC(=O)O)C(=O)N[C@@H](C(=O)N1CCC[C@H]1C(=O)N[C@H](C(=O)NCC(=O)N[C@@H](CC(C)C)C(=O)N[C@@H](CCCCNC(=O)COCCOCCNC(=O)COCCOCCNC(=O)CC[C@H](NC(=O)CCCCCCCCCCCCCCCCC(=O)O)C(=O)O)C(=O)N[C@@H](CCC(N)=O)C(=O)N[C@H](C(=O)N[C@@H](CC(C)C)C(=O)N[C@@H](CC(C)C)C(=O)N[C@@H](CCCCN)C(=O)N[C@@H](CCC(N)=O)C(=O)N[C@@H](CCC(=O)O)C(=O)N[C@@H](CCCNC(=N)N)C(=O)N[C@@H](CCC(N)=O)C(=O)N[C@@H](CCCCN)C(=O)N[C@@H](CCCCN)C(=O)NC(C)(C)C(=O)N[C@@H](CCCNC(=N)N)C(=O)N[C@@H](CCC(=O)O)C(=O)N[C@@H](CCC(N)=O)C(=O)N[C@@H](C)C(=O)N[C@@H](CCC(=O)O)C(=O)N[C@@H](CCCCN)C(=O)N[C@@H](CC(N)=O)C(=O)N[C@@H](CCCCN)C(=O)N[C@@H](CCCNC(=N)N)C(=O)N[C@H](C(=O)N[C@@H](CC(C)C)C(=O)N[C@@H](CCC(=O)O)C(=O)N[C@@H](CCCNC(=N)N)C(=O)N[C@H](C(N)=O)C(C)C)[C@@H](C)CC)[C@@H](C)CC)[C@@H](C)CC)C(C)C)C(C)C) [peptide of SEQ ID NO: 151]
0.1 | > 1000 | 37.6 | 18 | IVLSLD[dV]PIKLK([AEEA-AEEA-γGlu-C18 diacid])QILLKQERQKKQRQQAEKNKQILAQV-NH2 (N-terminus assumed; SMILES CC[C@H](C)[C@H](N)C(=O)N[C@H](C(=O)N[C@@H](CC(C)C)C(=O)N[C@@H](CO)C(=O)N[C@@H](CC(C)C)C(=O)N[C@@H](CC(=O)O)C(=O)N[C@@H](C(=O)N1CCC[C@H]1C(=O)N[C@H](C(=O)N[C@@H](CCCCN)C(=O)N[C@@H](CC(C)C)C(=O)N[C@@H](CCCCNC(=O)COCCOCCNC(=O)COCCOCCNC(=O)CC[C@H](NC(=O)CCCCCCCCCCCCCCCCC(=O)O)C(=O)O)C(=O)N[C@@H](CCC(N)=O)C(=O)N[C@H](C(=O)N[C@@H](CC(C)C)C(=O)N[C@@H](CC(C)C)C(=O)N[C@@H](CCCCN)C(=O)N[C@@H](CCC(N)=O)C(=O)N[C@@H](CCC(=O)O)C(=O)N[C@@H](CCCNC(=N)N)C(=O)N[C@@H](CCC(N)=O)C(=O)N[C@@H](CCCCN)C(=O)N[C@@H](CCCCN)C(=O)N[C@@H](CCC(N)=O)C(=O)N[C@@H](CCCNC(=N)N)C(=O)N[C@@H](CCC(N)=O)C(=O)N[C@@H](CCC(N)=O)C(=O)N[C@@H](C)C(=O)N[C@@H](CCC(=O)O)C(=O)N[C@@H](CCCCN)C(=O)N[C@@H](CC(N)=O)C(=O)N[C@@H](CCCCN)C(=O)N[C@@H](CCC(N)=O)C(=O)N[C@H](C(=O)N[C@@H](CC(C)C)C(=O)N[C@@H](C)C(=O)N[C@@H](CCC(N)=O)C(=O)N[C@H](C(N)=O)C(C)C)[C@@H](C)CC)[C@@H](C)CC)[C@@H](C)CC)C(C)C)C(C)C) [peptide of SEQ ID NO: 139]
2.53 | > 1000 | 4.54 | 13 | IVLSLD[dV]PIGLK([AEEA-AEEA-γGlu-C18 diacid])QILLKQERQKK[Aib]REQAETNKQILAQV-NH2 (N-terminus assumed; SMILES CC[C@H](C)[C@H](N)C(=O)N[C@H](C(=O)N[C@@H](CC(C)C)C(=O)N[C@@H](CO)C(=O)N[C@@H](CC(C)C)C(=O)N[C@@H](CC(=O)O)C(=O)N[C@@H](C(=O)N1CCC[C@H]1C(=O)N[C@H](C(=O)NCC(=O)N[C@@H](CC(C)C)C(=O)N[C@@H](CCCCNC(=O)COCCOCCNC(=O)COCCOCCNC(=O)CC[C@H](NC(=O)CCCCCCCCCCCCCCCCC(=O)O)C(=O)O)C(=O)N[C@@H](CCC(N)=O)C(=O)N[C@H](C(=O)N[C@@H](CC(C)C)C(=O)N[C@@H](CC(C)C)C(=O)N[C@@H](CCCCN)C(=O)N[C@@H](CCC(N)=O)C(=O)N[C@@H](CCC(=O)O)C(=O)N[C@@H](CCCNC(=N)N)C(=O)N[C@@H](CCC(N)=O)C(=O)N[C@@H](CCCCN)C(=O)N[C@@H](CCCCN)C(=O)NC(C)(C)C(=O)N[C@@H](CCCNC(=N)N)C(=O)N[C@@H](CCC(=O)O)C(=O)N[C@@H](CCC(N)=O)C(=O)N[C@@H](C)C(=O)N[C@@H](CCC(=O)O)C(=O)N[C@H](C(=O)N[C@@H](CC(N)=O)C(=O)N[C@@H](CCCCN)C(=O)N[C@@H](CCC(N)=O)C(=O)N[C@H](C(=O)N[C@@H](CC(C)C)C(=O)N[C@@H](C)C(=O)N[C@@H](CCC(N)=O)C(=O)N[C@H](C(N)=O)C(C)C)[C@@H](C)CC)[C@@H](C)O)[C@@H](C)CC)[C@@H](C)CC)C(C)C)C(C)C) [peptide of SEQ ID NO: 147]
0.26 | > 1000 | 4.38 | 8.4 | IVLSLD[dV]PIKLK([AEEA-AEEA-γGlu-C18 diacid])QILLKQERQKKQREKAEKNKQILAQV-NH2 (N-terminus assumed; SMILES CC[C@H](C)[C@H](N)C(=O)N[C@H](C(=O)N[C@@H](CC(C)C)C(=O)N[C@@H](CO)C(=O)N[C@@H](CC(C)C)C(=O)N[C@@H](CC(=O)O)C(=O)N[C@@H](C(=O)N1CCC[C@H]1C(=O)N[C@H](C(=O)N[C@@H](CCCCN)C(=O)N[C@@H](CC(C)C)C(=O)N[C@@H](CCCCNC(=O)COCCOCCNC(=O)COCCOCCNC(=O)CC[C@H](NC(=O)CCCCCCCCCCCCCCCCC(=O)O)C(=O)O)C(=O)N[C@@H](CCC(N)=O)C(=O)N[C@H](C(=O)N[C@@H](CC(C)C)C(=O)N[C@@H](CC(C)C)C(=O)N[C@@H](CCCCN)C(=O)N[C@@H](CCC(N)=O)C(=O)N[C@@H](CCC(=O)O)C(=O)N[C@@H](CCCNC(=N)N)C(=O)N[C@@H](CCC(N)=O)C(=O)N[C@@H](CCCCN)C(=O)N[C@@H](CCCCN)C(=O)N[C@@H](CCC(N)=O)C(=O)N[C@@H](CCCNC(=N)N)C(=O)N[C@@H](CCC(=O)O)C(=O)N[C@@H](CCCCN)C(=O)N[C@@H](C)C(=O)N[C@@H](CCC(=O)O)C(=O)N[C@@H](CCCCN)C(=O)N[C@@H](CC(N)=O)C(=O)N[C@@H](CCCCN)C(=O)N[C@@H](CCC(N)=O)C(=O)N[C@H](C(=O)N[C@@H](CC(C)C)C(=O)N[C@@H](C)C(=O)N[C@@H](CCC(N)=O)C(=O)N[C@H](C(N)=O)C(C)C)[C@@H](C)CC)[C@@H](C)CC)[C@@H](C)CC)C(C)C)C(C)C) [peptide of SEQ ID NO: 138]
